The target of experiment [1] is T1, human CD3 (human, UniProt P07766 23-207).
T1 construct: also called CD3 epsilon; CD3 on primary human T cells
The experiment is described as follows: flow cytometry based Intellicyt assay on human pan T cells, MFI, 4PL fit; lower end of the printed range 108-112 nM. The protocol: The affinity of CD3_spFv-1 to T cells was measured by flow cytometry based Intellicyt assay. Briefly, pan T cells were isolated from PBMC from healthy donors. Cells were incubated with titrating amounts test molecules for 1 hour, then washed. […] Cells were then washed and resuspended in 0.10% pluronic acid containing Sytox Green, then immediately analyzed in a flow cytometer. Median fluorescent intensity (MFI) was recorded (on RL1-A). The log 10 of the molecule concentration was plotted against the MFI. Best fit curves were evaluated using a 4PL algorithm (log(agonist) vs. response—Variable slope) in GraphPad Prism 9.0.

A further experiment concerns the target T2, cynomolgus monkey CD3 (cynomolgus monkey, UniProt Q95LI5 22-198).
T2 construct: whole, on cells; also called cynomolgus CD3
The experiment is described as follows: not described at this place; the sentence refers to 'example 2'.

For experiment [2], the target named is T3, human GUCY2C (guanylyl cyclase C) (human, UniProt P25092 24-1073). The experiment is described as follows: cell-based or functional assay.
T3 sequence (P25092 other isoform, or with tags, fused parts or gaps limits assumed): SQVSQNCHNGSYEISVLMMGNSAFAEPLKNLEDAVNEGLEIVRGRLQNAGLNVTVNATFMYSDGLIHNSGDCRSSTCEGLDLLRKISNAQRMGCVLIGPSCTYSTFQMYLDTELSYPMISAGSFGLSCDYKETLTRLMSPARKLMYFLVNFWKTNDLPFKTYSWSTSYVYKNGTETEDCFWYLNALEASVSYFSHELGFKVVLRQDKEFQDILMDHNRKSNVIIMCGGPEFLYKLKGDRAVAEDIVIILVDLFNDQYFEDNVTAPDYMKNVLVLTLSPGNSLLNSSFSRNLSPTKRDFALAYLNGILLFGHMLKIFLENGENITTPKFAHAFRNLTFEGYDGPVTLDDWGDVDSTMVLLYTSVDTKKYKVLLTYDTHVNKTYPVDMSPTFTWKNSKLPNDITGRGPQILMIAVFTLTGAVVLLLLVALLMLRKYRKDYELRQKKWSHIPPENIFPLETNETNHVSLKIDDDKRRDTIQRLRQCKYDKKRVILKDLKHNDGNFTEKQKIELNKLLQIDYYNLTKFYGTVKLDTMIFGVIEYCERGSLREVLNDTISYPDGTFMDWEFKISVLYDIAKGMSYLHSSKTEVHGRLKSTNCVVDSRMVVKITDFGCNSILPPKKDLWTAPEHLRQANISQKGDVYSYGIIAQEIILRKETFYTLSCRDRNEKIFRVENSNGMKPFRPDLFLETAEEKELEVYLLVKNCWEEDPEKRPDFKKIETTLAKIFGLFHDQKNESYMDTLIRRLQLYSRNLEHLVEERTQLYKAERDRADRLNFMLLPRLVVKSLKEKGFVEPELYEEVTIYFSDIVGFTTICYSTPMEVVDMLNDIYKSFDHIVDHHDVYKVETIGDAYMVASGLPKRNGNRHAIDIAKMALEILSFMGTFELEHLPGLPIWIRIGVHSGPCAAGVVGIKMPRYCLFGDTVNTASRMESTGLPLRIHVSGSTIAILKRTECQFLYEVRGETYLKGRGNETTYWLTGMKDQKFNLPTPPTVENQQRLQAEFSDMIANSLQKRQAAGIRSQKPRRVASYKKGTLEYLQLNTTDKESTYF
In experiment [3] the target is T3, human GUCY2C (guanylyl cyclase C). The experiment is described as follows: flow cytometry on T84 cells. As for the experimental part: One hour cell binding studies by flow cytometry were carried out at physiologically relevant temperature (37° C.) on GUCY2CxCD3 bispecific antibodies (GUCY2CxCD3 biAb-1 and GUCY2CxCD3_biAb-2), known reference GUCY2CxCD3 bispecific antibody (biAb), and Null×CD3 control molecules. The goal was to characterize and quantify specific, cell binding for GUCY2CxCD3_biAb-1 and 2. […] Maximum binding of GUCY2CxCD3 biAb-1 and 2 was higher than reference biAb.

For experiment [4], the target named is T1, human CD3. The experiment is described as follows: flow cytometry on primary T cells.
Experiment [5] concerns the target T3, human GUCY2C (guanylyl cyclase C). The experiment is described as follows: flow cytometry on CHO-huGUCY2C cells. As for the experimental part: Three (3) cell lines, Chinese hamster ovary (CHO) cell line, CHO transfected with cyno GUCY2C, and CHO transfected with human GUCY2C, were incubated with a titrating dose of GUCY2C_mAb for 60 min at 37° C., washed twice, then incubated with AF647 labeled anti human secondary for 30 minutes at 4° C. Cells were washed twice again, resuspended and acquired in a flow cytometer. Specific antibody binding was assessed in the RL1H channel for each cell line. Data presented as signal/background where background is secondary only.

T1 sequence (P07766 23-207 limits assumed): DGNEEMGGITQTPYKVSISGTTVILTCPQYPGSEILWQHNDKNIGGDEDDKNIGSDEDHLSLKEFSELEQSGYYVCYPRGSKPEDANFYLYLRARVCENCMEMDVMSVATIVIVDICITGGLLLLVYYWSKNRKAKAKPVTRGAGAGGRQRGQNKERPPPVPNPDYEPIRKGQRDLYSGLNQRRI
T2 sequence (Q95LI5 22-198): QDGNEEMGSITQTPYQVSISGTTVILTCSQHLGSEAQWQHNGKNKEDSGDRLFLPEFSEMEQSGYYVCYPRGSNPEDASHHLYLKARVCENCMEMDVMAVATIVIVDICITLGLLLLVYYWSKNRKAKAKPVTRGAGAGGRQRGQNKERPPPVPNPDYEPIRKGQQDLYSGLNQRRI

B1: CD3_spFv-1 (scFv)
scFv: EIVLTQSPATLSASPGERVTLSCSASSSVSYMNWYQQKPGCAPRRWIYDSSKLASGVPARFSGSGSGRDYTLTISSLEPEDFAVYYCQQWSRNPPTFGGGTKVEIKGGGSGGSGGCPPCGGSGGQVQLVQSGAEVKKPGSSVKVSCKASGYTFTRSTMHWVKQAPGQGLEWIGYINPSSAYTNYNQKFQGRVTLTADKSTSTAYMELSSLRSEDTAVYYCASPQVHYDYAGFPYWGCGTLVTVSS
notes: also called CD3 arm of GUCY2CxCD3_biAb-1; anti-CD3 spFv
B1: the EC50 in the experiment with human CD3 [1] was in the range of 108 to 112 nM. In addition, the binding result in the experiment with cynomolgus monkey CD3 is “no binding”.

B2: GUCY2CxCD3_biAb-1 (bispecific antibody, human IgG1, kappa, L234A L235A)
heavy: QVQLQESGPGLVKPSETLSLTCTVSGASISHYYWSWIRRPAGKGLEWIGRIYTSGSTNYNPSLKSRVTVSVDTSKNQFSLKLSSVTAADTAVYYCARDRYTGYFDLWGRGTLVTVSSASTKGPSVFPLAPSSKSTSGGTAALGCLVKDYFPEPVTVSWNSGALTSGVHTFPAVLQSSGLYSLSSVVTVPSSSLGTQTYICNVNHKPSNTKVDKKVEPKSCDKTHTCPPCPAPEAAGGPSVFLFPPKPKDTLMISRTPEVTCVVVSVSHEDPEVKFNWYVDGVEVHNAKTKPREEQYNSTYRVVSVLTVLHQDWLNGKEYKCKVSNKALPAPIEKTISKAKGQPREPQVYTLPPSREEMTKNQVSLSCAVKGFYPSDIAVEWESNGQPENNYKTTPPVLDSDGSFFLVSKLTVDKSRWQQGNVFSCSVMHEALHNRFTQKSLSLSPGK
light: not shown
chain: EIVLTQSPATLSASPGERVTLSCSASSSVSYMNWYQQKPGCAPRRWIYDSSKLASGVPARFSGSGSGRDYTLTISSLEPEDFAVYYCQQWSRNPPTFGGGTKVEIKGGGSGGSGGCPPCGGSGGQVQLVQSGAEVKKPGSSVKVSCKASGYTFTRSTMHWVKQAPGQGLEWIGYINPSSAYTNYNQKFQGRVTLTADKSTSTAYMELSSLRSEDTAVYYCASPQVHYDYAGFPYWGCGTLVTVSSEPKSSDKTHTCPPCPAPEAAGGPSVFLFPPKPKDTLMISRTPEVTCVVVSVSHEDPEVKFNWYVDGVEVHNAKTKPREEQYNSTYRVVSVLTVLHQDWLNGKEYKCKVSNKALPAPIEKTISKAKGQPREPQVYTLPPSREEMTKNQVSLWCLVKGFYPSDIAVEWESNGQPENNYKTTPPVLDSDGSFFLYSKLTVDKSRWQQGNVFSCSVMHEALHNHYTQKSLSLSPGK
notes: HC1/LC1 form the GUCY2C Fab arm (IgG1, L234A/L235A/D265S, hole T366S/L368A/Y407V); HC2 is CD3_spFv-1 (VL2-linker-VH2) fused to IgG1 Fc (L234A/L235A/D265S, knob T366W); also called GUCY2CxCD3 bisp-Ab1; GUCY2C-CD3-bisp-Abl
For the molecule B2, in experiment [2], the “Tumor killing EC50 (nM), HT-55” value amounted to 0.8 nM and the “Tumor killing EC50 (nM), LS1034” value was found to be 0.04 nM. The same molecule came in with an EC50 in experiment [3] of 12 nM. The same molecule came in with an EC50 with human CD3 [4] of 108 nM.

B3: GUCY2C_mAb (antibody, V domains shown)
VH: QVQLQESGPGLVKPSETLSLTCTVSGASISHYYWSWIRRPAGKGLEWIGRIYTSGSTNYNPSLKSRVTVSVDTSKNQFSLKLSSVTAADTAVYYCARDRYTGYFDLWGRGTLVTVSS
VL: not shown
notes: From Ablexis Kappa mice, so a kappa light chain; also called GUCYC2_mAb
In turn, B3 yielded a concentration for a half-maximal effect (EC50) in experiment [5] of 4.6 nM.

Values taken from patent US20250066510A1 (Janssen / Centocor, published 2025).
